Reference: patent US20230235054A1 (BIOATLA, published 2023)
Where a chain is given by its changes, count along the chain named.

T1: cynoNectin4-mFc (cyno, UniProt A0A2K5WES1 32-349)
T1 construct: Immobilized on the SPR chip; also called cyanoNectin4; not shown: mFc (mouse Fc)
T1 sequence: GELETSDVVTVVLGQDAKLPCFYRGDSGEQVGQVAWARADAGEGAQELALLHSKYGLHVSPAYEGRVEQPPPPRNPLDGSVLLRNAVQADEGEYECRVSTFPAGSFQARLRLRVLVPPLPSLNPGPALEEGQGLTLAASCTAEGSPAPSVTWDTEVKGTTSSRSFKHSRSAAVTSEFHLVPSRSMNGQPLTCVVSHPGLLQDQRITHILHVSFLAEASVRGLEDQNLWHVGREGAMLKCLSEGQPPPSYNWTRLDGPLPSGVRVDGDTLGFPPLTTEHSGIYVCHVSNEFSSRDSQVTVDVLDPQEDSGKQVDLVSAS

T2: human Nectin-4 on cells (human, UniProt Q96NY8 32-510)
T2 construct: whole, on cells; also called HEK293 cells expressing human Nectin-4; T47D cells that express human Nectin-4
T2 sequence (looked up): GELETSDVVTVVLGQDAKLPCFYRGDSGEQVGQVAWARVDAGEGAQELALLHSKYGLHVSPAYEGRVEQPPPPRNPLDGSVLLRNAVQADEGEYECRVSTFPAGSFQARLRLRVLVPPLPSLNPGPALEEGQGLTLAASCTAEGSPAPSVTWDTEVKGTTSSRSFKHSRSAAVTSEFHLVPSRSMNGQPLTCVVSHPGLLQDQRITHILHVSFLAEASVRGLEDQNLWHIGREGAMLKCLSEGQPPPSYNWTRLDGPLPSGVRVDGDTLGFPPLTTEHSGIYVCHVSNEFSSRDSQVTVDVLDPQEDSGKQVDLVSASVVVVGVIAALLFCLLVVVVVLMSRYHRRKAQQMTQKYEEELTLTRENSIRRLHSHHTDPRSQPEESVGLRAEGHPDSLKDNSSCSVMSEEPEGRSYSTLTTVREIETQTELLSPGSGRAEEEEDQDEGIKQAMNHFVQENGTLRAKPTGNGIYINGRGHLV

T3: cynoNectin4 antigen (cynomolgus (cyno), UniProt A0A2K5WES1 32-349)
T3 construct: construct not described; also called cynomolgus (cyno) Nectin-4
T3 sequence: T1 sequence

T4: recombinant human Nectin4 antigen (human, UniProt Q96NY8 32-349)
T4 construct: construct not described
T4 sequence (looked up): T1 sequence with A39V, V230I

B1: BAP-143-wildtype (antibody, V domains shown)
VH: EVQLVESGGGLVQPGGSLRLSCAASGFTFSSYNMNWVRQAPGKGLEWVSYISSSSSTIYYADSVKGRFTISRDNAKNSLSLQMNSLRDEDTAVYYCARAYYYGMDVWGQGTTVTVSS
VL: DIQMTQSPSSVSASVGDRVTITCRASQGISGWLAWYQQKPGKAPKFLIYAASTLQSGVPSRFSGSGSGTDFTLTISSLQPEDFATYYCQQANSFPPTFGGGTKVEIK
notes: 150 kDa used in SPR; also called BAP143-00-00; benchmark (BM)
B2: BAP-143-06-33-03 (antibody, V domains shown)
VH: QVQLVQSGAEVKKPGASVKVSCKASGFTFSSYNMNWVRQARGQRLEWIGYISSSSSTIYYADSVKGRFTISRDNSKNTLYLQMNSLRAEDTAVYYCARAYYYGMDKWGQGTLVTVSS
VL: B1 VL with F94E
notes: Used as a conjugate with a linker payload (CAB ADC)
B3: BAP-143-06-24-16 (antibody, V domains shown)
VH: EVQLVQSGAEVKKPGATVKISCKVSGFTFSSYNMNWIRQSPSRGLEWLGYISSSSSTIYYADSVKGRFTISRDNSKNTLYLQMNSLRAEDTAVYYCARAYYYGDDVWGQGTLVTVSS
VL: B1 VL with R24H
notes: as for B2
B4: BAP-143-00-05 (antibody, V domains shown)
VH: B1 VH with R98E
VL: B1 VL
notes: as for B2
B5: BAP-143-06-33-16 (antibody, V domains shown)
VH: B3 VH
VL: B1 VL with L33E
notes: as for B2
B6: BAP-143-00-06 (antibody, V domains shown)
VH: B1 VH with M104D
VL: B1 VL
notes: as for B2
B7: BAP-143-07-03-12 (antibody, V domains shown)
VH: B1 VH with V106K
VL: B1 VL with L33E
notes: as for B2
B8: BAP-143-00-01 (antibody, V domains shown)
VH: B1 VH
VL: B1 VL with L33E
notes: as for B2
B9: BAP-143-00-03 (antibody, V domains shown)
VH: B1 VH
VL: B1 VL with P96D
notes: as for B2
B10: BAP-143-00-04 (antibody, V domains shown)
VH: B1 VH with M34D
VL: B1 VL
notes: as for B2

Key:
cynoNectin4-mFc = molecular target: T1, cynoNectin4-mFc; assay: SPR, cynoNectin4-mFc immobilized, pH 7.4
Protocol: Binding kinetics of anti-Nectin4 antibodies were measured by surface plasmon resonance using a SPR2/4 instrument (Sierra Sensors, Hamburg, Germany) and flat amine sensor chips. The SPR sensor contained four flow cells (FC1-FC4), each of which was addressed individually or in groups. huNectin4-His was immobilized in FC2, and cynoNectin4-mFc in FC4. No protein was immobilized in FC1 and FC3 which were used as control surfaces for FC2 and FC4, respectively.
All injections were done at a flow rate of 25 μL/min at 25° C. The sensor surface was activated with 1-ethyl-3-(3-dimethylaminopropyl)-carbodiimide (EDC) and N-hydroxysuccinimide (NHS) (200 mM/50 mM) for 480 seconds. HuNectin4-His (2 μg/mL in 10 mM NaAc, pH4.5) was injected for 480s and the surface was inactivated by injecting 1M ethanolamine-HCl for 480s. CynoNectin4 was immobilized using the same conditions as described for huNectin4-His, except that the cynoNectin4 was diluted into 10 mM NaAc buffer having pH 5.0. The control surface was activated and deactivated using the same conditions, but without injecting protein. PBST buffer (PBS pH 7.4 with 0.05% TWEEN20™) was used as running buffer for the surface preparation. The running solution was switched to PBST with 30 mM sodium bicarbonate with the pH adjusted as indicated in the figures before the analyte injections. The instrument was equilibrated with the running solution for one hour before the first analyte injection.
The off-rate was measured for 360s. The chip surface was regenerated after each cycle of interaction analysis by injecting 6 μL of 10 mM glycine (pH 2.0). Flow cells 1 and 3 without immobilized protein were used as control surfaces for reference subtraction.

human Nectin-4 on cells = molecular target: T2, human Nectin-4 on cells; assay: FACS, HEK293 cells expressing human Nectin-4
Protocol: FACS analysis was carried out using HEK293 cells expressing human Nectin-4.

cynoNectin4 antigen = molecular target: T3, cynoNectin4 antigen; assay: ELISA, ratio of EC50s
Protocol: (§1) 1) Coat ELISA plates with 100 μL of 1 μg/mL recombinant human Nectin4 antigen or cynoNectin4 antigen in carbonate-bicarbonate coating buffer. […] 2) Cover plates with sealing film and incubate overnight at 4° C. [0444] 3) Decant plates and tap out residual liquid on a stack of paper towels. [0445] 4) Wash wells twice by dispensing 200 μL of pH 6.0 or pH 7.4 ELISA incubation buffer to the wells and completely aspirate the contents. [0446] 5) Add 200 μL of pH 6.0 or pH 7.4 ELISA incubation buffer to the wells. Cover with sealing film and place the plate onto a plate shaker set to 50 rpm for 60 minutes at room temperature. [0447] 6) Decant plates and tap out residual liquid on a stack of paper towels. […] 7) Serially dilute test articles in 3-fold dilutions starting at 3000 ng/mL in pH 6.0 or pH 7.4 ELISA incubation buffer. […] 8) Add 100 μL/well of diluted test articles to the plates [0450] 9) Cover with sealing film and place the plates onto a plate shaker set to 50 rpm for 60 minutes at room temperature. [0451] 10) Decant plates and tap out residual liquid on a stack of paper towels. [0452] 11) Wash wells three times by dispensing 200 μL of pH 6.0 or pH 7.4 ELISA wash buffer to the wells and completely aspirate the contents. […] 12) Dilute the HRP secondary antibody at 1:2500 in pH 6.0 or pH 7.4 ELISA incubation buffer. [0454] […] 14) Cover with sealing film and place the plates onto a plate shaker set to 50 rpm for 60 minutes at room temperature. […] 15) Decant plates and tap out residual liquid on a stack of paper towels. […] 16) Wash wells three times by dispensing 200 μL of pH 6.0 or pH 7.4 ELISA wash buffer to the wells and completely aspirate the contents. [0458] 17) Dispense 50 μL per well of the TMB substrate solution into all wells of the plates.

[1] = molecular target: T4, recombinant human Nectin4 antigen; assay: ELISA, ratio of EC50s
Protocol: as §1

Binder	Kd (cynoNectin4-mFc) [nM]	Ratio (pH 7.4/6.0) of EC50 (human Nectin-4 on cells)	EC50 ratio pH 7.4/6.0 (cynoNectin4 antigen)	EC50 ratio pH 7.4/6.0 [1]	koff (cynoNectin4-mFc) [s⁻¹]	kon (cynoNectin4-mFc) [M⁻¹ s⁻¹]	EC50 ratio pH 7.4/pH 6.0 [1]
B1	0.244						
B2		2.8	1.83				
B3	0.126	1.4	1.08	3.63	8.26e-05	655000	
B4							3.2
B5	2.37	1.5			0.000175	73900	
B6							2.83
B7	1.85	2	3.6		0.000651	352000	
B8	3.25	2.2			0.000781	240000	
B9							7.13
B10							2.37
